Holding throughout (experiment): purified protein
Substrate in data set [1]: O=C(O)c1cc(/N=N/c2ccc(S(=O)(=O)Nc3ccccn3)cc2)ccc1O
To be noted: 40 μM NADH, 50 mM MOPS pH 7.2, 22 °C.

Substrate in data set [2]: CCN(CC)c1ccc(N=Nc2ccccc2C(=O)O)cc1
In kind it is biochemical, Anaerotignum lactatifermentans. To be noted: 400 μM NADH, 50 mM MOPS pH 7.2, 22 °C.

Substrate in data set [3]: CN(C)c1ccc(N=Nc2ccccc2C(=O)O)cc1
The class given is biochemical, Anaerotignum lactatifermentans. Conditions: 400 μM NADH, 50 mM MOPS pH 7.2, 22 °C.

Substrate in data set [4]: Nc1ccc(N=Nc2ccccc2)c(N)n1
In kind it is biochemical, Anaerotignum lactatifermentans. Conditions: 400 μM NADH, 50 mM MOPS pH 7.2, 22 °C.

B1: AlAzoR (Anaerotignum lactatifermentans DSM 14214) (protein)
chain: MKKVLFVNCCIRREGSRTQKLADHFLEGLRKKEGYEIEELCLMDESLSYFTDGFFEQRERLLADKQFDHPRFRYAHQFAEADKIVIAAPFWDLSFPALLKVYIENLCVEGITFGCNETGCFGTCKADQLIYLTTRGGFYNDNPMEMGSRYIWAMCDFFGIPRYDCVAGDGLDTGVRPVEEILEDAKAEIDRLLAEF
On to B1, for which the Km in “purified protein [1]” stood at 8 ± 1 µM; in “purified protein [2]” it was 30. ± 2 μM; in “purified protein [3]”, 17 ± 3 µM; in “purified protein [4]” it was 23 ± 3 µM. In addition, the kcat is 0.05 s⁻¹ in “purified protein [1]”, 0.78 ± 0.02 s⁻¹ in the data set “purified protein [2]”, 0.49 ± 0.03 s⁻¹ in the data set “purified protein [3]” and 0.138 ± 0.008 s⁻¹ in “purified protein [4]”. Also, the kcat/Km amounted to 6100 M⁻¹ s⁻¹ in “purified protein [1]”, 26000 ± 2000 M⁻¹ s⁻¹ in “purified protein [2]”, 28000 ± 4000 M⁻¹ s⁻¹ in “purified protein [3]” and 6000 ± 700 M⁻¹ s⁻¹ in “purified protein [4]”.

Values taken from article PMC11295148.
